This is an account of results in patent publication US20150183880A1.

In assay [1] the target is IGF-1R and EGP-1 together on cancer cell lines (MCF-7, DU-145, ME-180). Kind of assay: flow cytometry (FACScan), MCF-7 cells; structural control. On the technique in general: A flow cytometer gives signals particle by particle.
Assay [2] concerns the target recombinant human IGF-1R (R&D Systems, Catalog #391-GR), extracellular domain (human) (UniProt P08069). Kind of assay: rhIGF-1R-coated beads; competitor unlabeled 24-31.
Assay [3] has the same target. The assay can be described thus: rhIGF-1R-coated beads; competitor unlabeled R1.
The target is the same in assay [4]. The assay can be described thus: rhIGF-1R-coated beads; competitor unlabeled cR1.
Assay [5] shares this target. Kind of assay: rhIGF-1R-coated beads; competitor unlabeled 2C8.
Assay [6] shares this target. The assay can be described thus: rhIGF-1R-coated beads; competitor unlabeled 3B7.
Assay [7] has the same target. The assay can be described thus: rhIGF-1R-coated beads; competitor unlabeled αIR-3.
For assay [8] the target is unchanged. The assay can be described thus: rhIGF-1R-coated beads; competitor unlabeled MAB391.
For assay [9] the target is unchanged. Kind of assay: rhIGF-1R-coated beads; competitor unlabeled 1H7.
The target is the same in assay [10]. The assay can be described thus: rhIGF-1R-coated beads; competitor unlabeled 24-57.
For assay [11] the target is unchanged. The assay can be described thus: rhIGF-1R-coated beads; competitor unlabeled 24-60.
The target is the same in assay [12]. The assay can be described thus: rhIGF-1R-coated beads; competitor unlabeled hR1.
Assay [13] shares this target. The assay can be described thus: rhIGF-1R-coated beads; competitor unlabeled 17-69.
Assay [14] shares this target. Kind of assay: rhIGF-1R-coated beads; competitor unlabeled 1-2.
Assay [15] concerns the target EGP-1 expressed on cancer cell lines (MCF-7, DU-145, ME-180) (UniProt P09758). Kind of assay: flow cytometry (FACScan), DU145 cells.
For assay [16] the target is unchanged. The assay can be described thus: flow cytometry (FACScan), MCF-7 cells.
Assay [17] shares this target. The assay can be described thus: flow cytometry (FACScan), ME-180 cells.
In assay [18] the target is IGF-1R expressed on cancer cell lines (MCF-7, MCF-7L, CaPan1, DU-145, ME-180, Hep G2, HT-29, LNCaP) (human) (UniProt P08069). Kind of assay: 125I-IGF-1 binding to MCF-7L cells with antibody at 0 ng/mL (baseline).
Assay [19] has the same target. Kind of assay: 125I-IGF-1 binding to MCF-7L cells with antibody at 100 ng/mL.
For assay [20] the target is unchanged. The assay can be described thus: 125I-IGF-1 binding to MCF-7L cells with antibody at 10 ng/mL.
Assay [21] has the same target. The assay can be described thus: 125I-IGF-1 binding to MCF-7L cells with antibody at 1000 ng/mL.
The target of assay [22] is IGF-1R and EGP-1 together on cancer cell lines (MCF-7, DU-145, ME-180). Kind of assay: flow cytometry (FACScan), MCF-7 cells; control.

EGP-1 expressed on cancer cell lines (MCF-7, DU-145, ME-180), sequence (P09758 27-323 limits assumed): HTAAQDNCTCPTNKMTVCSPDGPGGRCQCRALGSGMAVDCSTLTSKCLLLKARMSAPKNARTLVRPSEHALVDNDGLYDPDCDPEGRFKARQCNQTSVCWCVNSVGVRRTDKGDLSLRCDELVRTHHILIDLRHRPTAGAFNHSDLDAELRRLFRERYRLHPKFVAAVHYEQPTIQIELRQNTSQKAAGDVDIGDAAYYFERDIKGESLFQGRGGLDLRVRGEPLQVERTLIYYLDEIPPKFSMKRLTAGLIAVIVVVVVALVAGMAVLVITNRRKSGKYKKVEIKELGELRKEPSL

As for “22-20 (bispecific hexavalent DNL construct: hLL2 IgG-AD2 with four hA20 Fab-DDD2) (bispecific antibody)”, in assay [1], the % Positive was found to be 3.1% and the MFI amounted to 2.11.
On to “24-60 (commercial anti-IGF-1R mAb) (antibody)”, for which the % binding in assay [2] is 18%; in [3] it was 0%; in assay [4], 0%; in [5], 88%; in [6], 79%; in assay [7], 21%. Also, the % binding in assay [8] was determined as 0%; in assay [9], 100%; in [10], 88%; in assay [11] it was 0%; in [12] it was 0%; in [13] it was 82%. Further, the % binding in assay [14] is 100%.
Regarding “Hex-hRS7 (monospecific hexavalent DNL construct of hRS7, anti-EGP-1)”, the % Positive is 93.7% in [15], 99.9% in assay [16] and 100% in [17]. Also, the MFI in assay [15] worked out at 17; in assay [16], 35.7; in assay [17], 59.6.
Take “MAB391 (commercial mouse anti-IGF-1R monoclonal antibody, R&D clone 33255.111)”: the % binding in [3] stood at 40%; in assay [8] it was 0%. Also, the % binding of 125I-IGF-1 in assay [18] turned out to be 100%; in assay [19] it was 54%; in assay [20] it was 95%; in assay [21], 38%.
In assay [22], human IgG (control) (antibody) gave a % Positive of 2.34% and an MFI of 1.84.
As for “αIR-3 (commercial anti-IGF-1R mAb) (antibody)”, the % binding in assay [2] was 52%; in assay [3] it was 86%; in assay [4], 97%; in assay [5], 97%; in [6], 76%; in [7] it was 0%. For the same substance, the % binding in assay [8] amounted to 0%; in [9] it was 115%; in assay [10], 87%; in [11], 0%; in [12] it was 107%; in assay [13], 89%. For the same substance, in [14], the % binding amounted to 95%.
